Experiments:
[1] = biological target: rHDL-apoA-I (reconstituted discoidal HDL particles carrying apolipoprotein A-I); assay: SPR, rHDL-apoA-I immobilised; reference Δ20-rePON1-192Q
[2] = biological target: rHDL-apoA-I (reconstituted discoidal HDL particles carrying apolipoprotein A-I); assay: SPR (BIAcore 3000), biotinylated rHDL-apoA-I on streptavidin chip, PON1 injected, 25° C.

Sequence of Δ20-rePON1-192Q (P27170 other isoform, or with tags, fused parts or gaps mutant): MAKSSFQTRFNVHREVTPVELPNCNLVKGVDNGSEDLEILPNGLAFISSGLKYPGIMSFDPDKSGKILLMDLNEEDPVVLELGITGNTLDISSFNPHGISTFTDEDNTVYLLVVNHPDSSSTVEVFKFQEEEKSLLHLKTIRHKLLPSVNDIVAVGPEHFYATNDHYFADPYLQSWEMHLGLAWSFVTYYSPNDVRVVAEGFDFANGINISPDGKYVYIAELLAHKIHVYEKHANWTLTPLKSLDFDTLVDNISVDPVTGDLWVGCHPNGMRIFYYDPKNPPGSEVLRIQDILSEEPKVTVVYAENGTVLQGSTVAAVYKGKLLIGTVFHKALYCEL
Sequence of wt Δ20-rePON1-192K (P27170 other isoform, or with tags, fused parts or gaps mutant): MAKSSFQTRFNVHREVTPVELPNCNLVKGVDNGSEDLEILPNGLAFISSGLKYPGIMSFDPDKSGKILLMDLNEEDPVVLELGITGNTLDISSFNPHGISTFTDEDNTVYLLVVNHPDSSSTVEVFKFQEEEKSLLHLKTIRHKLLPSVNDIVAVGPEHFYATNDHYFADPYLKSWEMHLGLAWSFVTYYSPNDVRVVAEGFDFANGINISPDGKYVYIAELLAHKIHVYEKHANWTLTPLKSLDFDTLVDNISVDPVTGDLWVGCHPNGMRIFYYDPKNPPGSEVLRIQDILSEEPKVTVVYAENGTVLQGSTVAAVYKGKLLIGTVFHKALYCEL
Sequence of Δ20-rePON1-192R (P27170 other isoform, or with tags, fused parts or gaps mutant): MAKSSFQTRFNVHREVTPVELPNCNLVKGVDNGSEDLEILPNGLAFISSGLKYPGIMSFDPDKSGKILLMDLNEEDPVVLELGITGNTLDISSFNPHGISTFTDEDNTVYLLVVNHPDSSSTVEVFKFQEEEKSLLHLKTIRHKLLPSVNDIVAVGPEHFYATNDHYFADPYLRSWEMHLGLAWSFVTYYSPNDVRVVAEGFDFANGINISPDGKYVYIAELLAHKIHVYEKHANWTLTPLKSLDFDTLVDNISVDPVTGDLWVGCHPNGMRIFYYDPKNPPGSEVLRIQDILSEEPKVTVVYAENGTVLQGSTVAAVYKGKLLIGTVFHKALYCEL

Row | fold higher HDL binding affinity than the Q isozyme [1] [fold] | Kd [2] [nM] | koff [2] [s⁻¹] | kon [2] [M⁻¹ s⁻¹] | fold higher HDL affinity than the Q isozyme [1] [fold] | Substance
1 | 3 | 100 | 0.02 | 200000 |  | wt Δ20-rePON1-192K (from UniProt P27170 21-355) (enzyme)
2 |  | 300 | 0.042 | 140000 |  | Δ20-rePON1-192Q (from UniProt P27170 21-355) (enzyme)
3 |  | 110 | 0.029 | 260000 | 3 | Δ20-rePON1-192R (from UniProt P27170 21-355) (enzyme)
